Assay results reported in patent US20220119469.

Columns and labels:
[1] = molecular target: endogenous MyBP-C of homozygous soleus tissue (with TEV site and SpyTag), uncut
[2] = molecular target: endogenous MyBP-C in wild type soleus tissue
[3] = molecular target: T1, Spy-C cMyBP-C (cMyBP-C of Spy-C mice with a TEV protease recognition site and a SpyTag sequence in the linker between domains C7 and C8), uncut
T1 chain: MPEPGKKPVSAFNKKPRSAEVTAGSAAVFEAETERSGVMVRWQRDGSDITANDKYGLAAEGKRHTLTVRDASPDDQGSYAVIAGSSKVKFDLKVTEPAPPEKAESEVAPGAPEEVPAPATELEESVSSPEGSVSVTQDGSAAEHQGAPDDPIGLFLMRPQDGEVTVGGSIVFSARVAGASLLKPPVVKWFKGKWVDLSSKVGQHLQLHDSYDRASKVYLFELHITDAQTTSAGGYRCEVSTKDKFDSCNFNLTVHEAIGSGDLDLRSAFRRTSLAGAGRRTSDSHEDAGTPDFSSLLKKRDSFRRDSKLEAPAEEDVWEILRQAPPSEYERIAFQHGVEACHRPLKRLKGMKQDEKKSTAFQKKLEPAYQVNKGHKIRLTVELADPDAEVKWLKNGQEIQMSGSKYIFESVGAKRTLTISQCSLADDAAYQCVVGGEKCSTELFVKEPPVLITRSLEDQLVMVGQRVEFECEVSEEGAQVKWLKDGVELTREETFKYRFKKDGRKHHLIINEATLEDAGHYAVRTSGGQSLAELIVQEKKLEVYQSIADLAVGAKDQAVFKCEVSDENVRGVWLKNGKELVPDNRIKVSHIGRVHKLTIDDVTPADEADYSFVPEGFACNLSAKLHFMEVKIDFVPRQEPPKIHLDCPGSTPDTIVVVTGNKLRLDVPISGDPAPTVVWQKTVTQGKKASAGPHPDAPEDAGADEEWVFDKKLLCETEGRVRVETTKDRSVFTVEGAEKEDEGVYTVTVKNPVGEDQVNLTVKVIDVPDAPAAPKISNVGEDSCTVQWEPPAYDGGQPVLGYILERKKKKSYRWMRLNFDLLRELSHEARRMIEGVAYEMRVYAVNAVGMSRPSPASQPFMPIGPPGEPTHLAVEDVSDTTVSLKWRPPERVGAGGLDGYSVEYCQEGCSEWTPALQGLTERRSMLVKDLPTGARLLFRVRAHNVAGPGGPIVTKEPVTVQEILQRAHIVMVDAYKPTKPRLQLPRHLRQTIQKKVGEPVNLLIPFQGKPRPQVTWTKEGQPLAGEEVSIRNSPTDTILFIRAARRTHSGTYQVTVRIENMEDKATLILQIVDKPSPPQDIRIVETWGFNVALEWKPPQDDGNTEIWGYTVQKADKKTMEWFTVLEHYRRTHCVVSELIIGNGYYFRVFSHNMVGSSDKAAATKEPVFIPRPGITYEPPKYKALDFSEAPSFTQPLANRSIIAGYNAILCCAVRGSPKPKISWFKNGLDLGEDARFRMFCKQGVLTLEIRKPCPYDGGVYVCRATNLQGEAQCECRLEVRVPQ

B1: TEV protease (protein)
chain: GESLFKGPRDYNPISSTICHLTNESDGHTTSLYGIGFGPFIITNKHLFRRNNGTLLVQSLHGVFKVKNTTTLQQHLIDGRDMIIIRMPKDFPPFPQKLKFREPQREERICLVTTNFQTKSMSSMVSDTSCTFPSSDGIFWKHWIQTKDGQCGSPLVSTRDGFIVGIHSASNFTNTNNYFTSVPKNFMELLTNQEAQQWVSGWRLNADSVLWGGHKVFMSKPEEPFQPVKEATQLMN
- decrease in molecular weight on western blot [1]: endogenous MyBP-C domains C1-C7 in homozygous tissue are cleaved with TEV protease (TEVp), shown by a decrease in molecular weight
- size on western blot [2]: the size of endogenous MyBP-C in wild type tissue is unaffected by TEVp, washing and addition of replacement protein
- cleavage in permeabilized myocytes [3]: Spy-C cMyBP-C was cleaved at the TEV site
